The target in assay [1] is KRas(WT) (human, UniProt P01116 1-187, 15N-labelled in NMR; biotin on the yBBr tag (by Sfp) in SPR). The assay is described as follows: SPR; GppNHp. A general note: Surface plasmon resonance follows binding to a sensor surface in real time, without labels.
Assay [2] deals with 225-3 miniprotein (fluorescein (N-(5-fluoresceinyl)maleimide) in fluorescence polarisation; biotin-PEG2-maleimide where immobilised in SPR; unlabelled otherwise). Description: FP; GppNHp.

B1: 225-15a/b heterodimeric miniprotein (designed binder)
chain 1: SGPRRPRCPGDQASLEELHEYWARLWNYLYRVAH
chain 2: GGGPRRPRCPGDNASIKQLHAYWQRLYAYLAAVA
modifications: oxidized dimer (disulfide with the other chain) | oxidized dimer (disulfide with the other chain)
Take B1: in assay [1], the Kd is 0.09 nM.

B2: RalA (natural protein)
chain: MAANKPKGQNSLALHKVIMVGSGGVGKSALTLQFMYDEFVEDYEPTKADSYRKKVVLDGEEVQIDILDTAGQEDYAAIRDNYFRSGEGFLCVFSITEMESFAATADFREQILRVKEDENVPFLLVGNKSDLEDKRQVSVEEAKNRAEQWNVNYVETSAKTRANVDKVFFDLMREIRARKMEDSKEKNGKKKRKSLAKRIRERCCIL
modifications: biotinylated in SPR; unlabelled in fluorescence polarisation
On to B2, for which, in assay [2], the Kd was > 10 µM.

B3: Rab25 (natural protein)
chain: MGNGTEEDYNFVFKVVLIGESGVGKTNLLSRFTRNEFSHDSRTTIGVEFSTRTVMLGTAAVKAQIWDTAGLERYRAITSAYYRGAVGALLVFDLTKHQTYAVVERWLKELYDHAEATIVVMLVGNKSDLSQAREVPTEEARMFAENNGLLFLETSALDSTNVELAFETVLKEIFAKVSKQRQNSIRTNAITLGSAQAGQEPGPGEKRACCISL
modifications: biotinylated in SPR; unlabelled in fluorescence polarisation
For B3, in assay [2], the Kd is > 10 µM.

As usually defined, the Kd is the equilibrium constant for the complex coming apart.

The record behind these values is publication PMC5836121 (2017).
